Reference: patent US20210355194A1 (TWIST BIOSCIENCE, published 2021)
Where two headings read alike, the source gives them in different places.

Tests used:
[1] = target: T1, COVID S1 RBM Fc fusion (Antigen 2) (SARS-CoV-2, UniProt P0DTC2 437-508); assay: phage ELISA
S1 Fc fusion protein [2] = target: T2, S1 Fc fusion protein (SARS-CoV-2, UniProt P0DTC2 14-685); assay: phage ELISA
[3] = target: T3, COVID S1 RBD Fc fusion (Antigen 1) (SARS-CoV-2, UniProt P0DTC2 319-541); assay: phage ELISA
[4] = target: T1, COVID S1 RBM Fc fusion (Antigen 2); assay: phage ELISA; remark: listed apart in the source
S1 Fc fusion protein [5] = target: T2, S1 Fc fusion protein; assay: phage ELISA; remark: listed apart in the source
[6] = target: T3, COVID S1 RBD Fc fusion (Antigen 1); assay: phage ELISA; remark: listed apart in the source
[7] = target: T4, SARS-CoV-2 spike on live SARS-CoV-2 virus (SARS-CoV-2, UniProt P0DTC2 14-1273); assay: cell-based or functional assay
[8] = target: SARS-CoV-2 spike on VSV-pseudotype SARS-CoV-2 (SARS-CoV-2, UniProt P0DTC2 14-1273); assay: cell-based or functional assay
[9] = target: T4, SARS-CoV-2 spike on live SARS-CoV-2 …; assay: cell-based or functional assay; remark: listed apart in the source
[10] = target: T4, SARS-CoV-2 spike on live SARS-CoV-2 …; assay: cell-based or functional assay; remark: listed apart in the source

Binder	ELISA fold over background [1] [fold]	ELISA fold over background (S1 Fc fusion protein [2]) [fold]	ELISA fold over background [3] [fold]	ELISA fold over background [4] [fold]	ELISA fold over background (S1 Fc fusion protein [5]) [fold]	ELISA fold over background [6] [fold]	EC80 [7] [µg/mL]	NC50 [8] [µg/mL]	EC50 [9] [µg/mL]	PRNT90 [10] [ng/mL]
SARS-CoV-2 variant 1-25 (antibody, V domains shown) VH: EVQLLESGGGLVQPGGSLRLSCAASGFTFSDYAMNWVRQAPGKGLEWVSIISGSGGSTYYADSVKGRFTISRDNSKNTLYLQMNSLRAEDTAVYYCAREGYRDYLWYFDLWGQGTLVTVSS VL: QSALTQPASVSGSPGQSITISCSGTSSDVGSYNLVSWYQQHPGKAPKLMIYEASKRPSGVSNRFSGSKSGNTASLTISGLQAEDEADYYCCSYAGSSTVFGGGTKLTVL	0.8	1	2.7	0.8	1	2.7				
SARS-CoV-2 variant 1-23 (antibody, V domains shown) VH: EVQLLESGGGLVQPGGSLRLSCAASGFTFSSYAISWVRQAPGKGLEWVSIISGSGGSTYYADSVKGRFTISRDNSKNTLYLQMNSLRAEDTAVYYCAREGYRDYLWYFDLWGQGTLVTVSS VL: QSALTQPASVSGSPGQSITISCTGTSNDVGSYNLVSWYQQHPGKAPKLMIYEGNKRPSGVSNRFSGSKSGNTASLTISGLQAEDEADYYCCSYAGSYTVFGGGTKLTVL	1.6	1.6	3.6	1.6	1.6	3.6				
SARS-CoV-2 variant 1-24 (antibody, V domains shown) VH: EVQLLESGGGLVQPGGSLRLSCAASGFTFSSYAMNWVRQAPGKGLEWVSIISGSGGSTYYADSVKGRFTISRDNSKNTLYLQMNSLRAEDTAVYYCAREGYRDYLWYFDLWGQGTLVTVSS VL: QSALTQPASVSGSPGQSITISCTGTSSDVGYYNLVSWYQQHPGKAPKLMIYEGNKRPSGVSNRFSGSKSGNTASLTISGLQAEDEADYYCCSYAGGSVVFGGGTKLTVL	1.3	1.1	11	1.3	1.1	11				
SARS-CoV-2 variant 1-27 (antibody, V domains shown) VH: EVQLLESGGGLVQPGGSLRLSCAASGFTFSSYAMTWVRQAPGKGLEWVSAISGSGGGTYYADSVKGRFTISRDNSKNTLYLQMNSLRAEDTAVYYCASSSSWQFDYWGQGTLVTVSS VL: QSALTQPASVSGSPGQSITISCTGTSSYVGHYNLVSWYQQHPGKAPKLMIYEGSRRPSGVSNRFSGSKSGNTASLTISGLQAEDEADYYCCSYAGSYTHYVFGGGTKLTVL	1.6	1.3	1.9	1.6	1.3	1.9				
SARS-CoV-2 variant 1-10 (antibody, V domains shown) VH: EVQLLESGGGLVQPGGSLRLSCAASGFTFSSYDMSWVRQAPGKGLEWVSVISGSGGSTYYADSVKGRFTISRDNSKNTLYLQMNSLRAEDTAVYYCAKGPLVGWYFDLWGQGTLVTVSS VL: QSALTQPASVSGSPGQSITISCTGTSSNVGSYNLVSWYQQHPGKAPKLMIYEGTKRPSGVSNRFSGSKSGNTASLTISGLQAEDEADYYCCSYAGSSSFVVFGGGTKLTVL	1.1	1.3	17.4	1.1	1.3	17.4				
SARS-CoV-2 variant 1-7 (antibody, V domains shown) VH: EVQLLESGGGLVQPGGSLRLSCAASGFTFSSYDMSWVRQAPGKGLEWVSVISGSGGSTYYADSVKGRFTISRDNSKNTLYLQMNSLRAEDTAVYYCAKGPLVGWYFDLWGQGTLVTVSS VL: QSALTQPASVSGSPGQSITISCTGTSSDFGSYNLVSWYQQHPGKAPKLMIYEGNKRPSGVSNRFSGSKSGNTASLTISGLQAEDEADYYCCSYAGSSTFVVFGGGTKLTVL	1.6	1.7	3.3	1.6	1.7	3.3				
SARS-CoV-2 variant 1-36 (antibody, V domains shown) VH: EVQLLESGGGLVQPGGSLRLSCAASGLTFSSYAMSWVRQAPGKGLEWVSDISGSGGSTYYADSVKGRFTISRDNSKNTLYLQMNSLRAEDTAVYYCVKGTIPIFGVIRSAFDYWGQGTLVTVSS VL: QSALTQPASVSGSPGQSITISCTGTSSDVGSYSLVSWYQQHPGKAPKLMIYEGDKRPSGVSNRFSGSKSGNTASLTISGLQAEDEADYYCCSYAGSYSYVVFGGGTKLTVL	0.8	1.1	1.2	0.8	1.1	1.2				
SARS-CoV-2 variant 1-35 (antibody, V domains shown) VH: EVQLLESGGGLVQPGGSLRLSCAASGFTFSNYAMSWVRQAPGKGLEWVSDISGSGGSTYYADSVKGRFTISRDNSKNTLYLQMNSLRAEDTAVYYCVKGTIPIFGVIRSAFDYWGQGTLVTVSS VL: QSALTQPASVSGSPGQSITISCTGTSSDVGSYSLVSWYQQHPGKAPKLMIYEGTKRPSGVSNRFSGSKSGNTASLTISGLQAEDEADYYCCSYAGSYSYVVFGGGTKLTVL	1.6	1.4	1.8	1.6	1.4	1.8				
variant 5-34 (Fc fusion) VHH: EVQLVESGGGLVQPGGSLRLSCAASGRTFSRYIMGWFRQAPGKEREFVAAISWSGGDNTYYADSVKGRFTISADNSKNTAYLQMNSLKPEDTAVYYCAAYRIVVGGTSPGDWRWGQGTLVTVSS							0.57	0.54	0.54	15.6
SARS-CoV-2 variant 1-48 (antibody, V domains shown) VH: EVQLLESGGGLVQPGGSLRLSCAASGFTFSSHAMYWVRQAPGKGLEWVSAISGSAGSTYYADSVKGRFTISRDNSKNTLYLQMNSLRAEDTAVYYCAHDTKDFWSGYCIFDPWGQGTLVTVSS VL: QSALTQPASVSGSPGQSITISCTGTSSDIGSYNLVSWYQQHPGKAPKLMIYEGTKRPSGVSNRFSGSKSGNTASLTISGLQAEDEADYYCCSYAGSRTYVFGGGTKLTVL	0.8	0.8	2.1	0.8	0.8	2.1				
variant 5-20 (Fc fusion) VHH: EVQLVESGGGLVQPGGSLRLSCAASGRTIVPYTMGWFRQAPGKERELVAAISPSAFTEYADSVKGRFTISADNSKNTAYLQMNSLKPEDTAVYYCAARRWGYDWGQGTLVTVSS							0.376	0.27	0.27	3.9
